What was measured:
[1] = test system: immune cells; assay: Nutritional intervention on immune cells in tumor burdened animals with and without chemotherapy (FIG. 11); format: in vivo
Text: FIG. 11 illustrates a graph of the effect of nutritional intervention on immune cells in tumor burdened animals with and without chemotherapy in accordance with an embodiment of the present disclosure.

[2] = test system: red blood cell, white blood cell and immune cell populations; assay: Haematological evaluation and flow cytometric analysis, test diets with chemotherapy (Example 2); format: in vivo, mice
Method: The animals were distributed into 7 different group diets. There was a control group that received the diet AIN 93 for adult rodents (maintenance). Test diets were administered in doses appropriate to the animal model: (a) Ctrl diet were supplemented with 1% (w/w) L-arginine, (b) 25% of the protein was replaced by glutamine, (c) 1% (w/w) L-citrulline, (d) 1 g/Kg body weight with active hexose correlated compound, (e) 20 mg/day of RNA nucleotides and (f) 25 mg/day of lactoferrin. […] Control animals without chemotherapeutic treatment were run in parallel for all tested diets. Body weight was assessed every two days. Blood samples were obtained at day 2, 4 and 10 after the chemo-treatment and at sacrifice (14 or 28 days). An autopsy was performed and tumor mass was assessed.

B1: lactoferrin: diet with 25 mg/day of lactoferrin (protein, UniProt P24627 20-708, looked up)
Lactotransferrin: APRKNVRWCTISQPEWFKCRRWQWRMKKLGAPSITCVRRAFALECIRAIAEKKADAVTLDGGMVFEAGRDPYKLRPVAAEIYGTKESPQTHYYAVAVVKKGSNFQLDQLQGRKSCHTGLGRSAGWIIPMGILRPYLSWTESLEPLQGAVAKFFSASCVPCIDRQAYPNLCQLCKGEGENQCACSSREPYFGYSGAFKCLQDGAGDVAFVKETTVFENLPEKADRDQYELLCLNNSRAPVDAFKECHLAQVPSHAVVARSVDGKEDLIWKLLSKAQEKFGKNKSRSFQLFGSPPGQRDLLFKDSALGFLRIPSKVDSALYLGSRYLTTLKNLRETAEEVKARYTRVVWCAVGPEEQKKCQQWSQQSGQNVTCATASTTDDCIVLVLKGEADALNLDGGYIYTAGKCGLVPVLAENRKSSKHSSLDCVLRPTEGYLAVAVVKKANEGLTWNSLKDKKSCHTAVDRTAGWNIPMGLIVNQTGSCAFDEFFSQSCAPGADPKSRLCALCAGDDQGLDKCVPNSKEKYYGYTGAFRCLAEDVGDVAFVKNDTVWENTNGESTADWAKNLNREDFRLLCLDGTRKPVTEAQSCHLAVAPNHAVVSRSDRAAHVKQVLLHQQALFGKNGKNCPDKFCLFKSETKNLLFNDNTECLAKLGGRPTYEEYLGTEYVTAIANLKKCSTSPLLEACAFLTR
- toxicity (immune cells) ([1]; chemotherapy treated group as compared to the control (FIG. 11)): less toxicity
- immune cell population / concentration ([1]; during the second phase (tumor-induced toxicity)): increase in their immune cell population
- Global lymphocyte population ([2]; following chemotherapy, supplemented diets): less depressed
- leukocytic increase (white blood cell counts) ([2]; oxaliplatin treated animals, supplemented diet 25 mg/day): tended to be higher
